FireProtDB (doi:10.1111/j.1432-1033.1995.tb20520.x)
Where “and” joins values, the source holds several entries; their conditions need not be identical. Identical values can stand only once.

Settings: Paenibacillus macerans, pH 6, Sodium cacodylate 2 mM, reversible: yes, whole UniProt chain shown; for unfolding free energy: 25 °C, GdnHCl; for heat capacity change of unfolding / unfolding enthalpy (van 't Hoff) / Tm / unfolding enthalpy (calorimetric): Thermal

B1: Beta-glucanase wild type, P23904 (protein)
chain: MKKKSCFTLVTTFAFSLIFSVSALAGSVFWEPLSYFNRSTWEKADGYSNGGVFNCTWRANNVNFTNDGKLKLGLTSSAYNKFDCAEYRSTNIYGYGLYEVSMKPAKNTGIVSSFFTYTGPAHGTQWDEIDIEFLGKDTTKVQFNYYTNGVGGHEKVISLGFDASKGFHTYAFDWQPGYIKWYVDGVLKHTATANIPSTPGKIMMNLWNGTGVDDWLGSYNGANPLYAEYDWVKYTSN
In the case of B1, the unfolding free energy (CD) is reported as 10.3 kcal/mol and 9.01 kcal/mol and 8.6 kcal/mol, the unfolding free energy (DSC, CaCl2 1 mM) is reported as 10.4 kcal/mol and 10.5 kcal/mol and the unfolding free energy (DSC) is reported as 10.8 kcal/mol and 9.89 kcal/mol and 8.41 kcal/mol. The “heat capacity change of unfolding” value (CD, CaCl2 1 mM) was 2.2 kcal/mol/K and 1.79 kcal/mol/K, the “unfolding enthalpy (van 't Hoff)” value (CD, CaCl2 1 mM) was 162 kcal/mol and 169 kcal/mol and 183 kcal/mol and the Tm (CD) was 51.2 °C and 47.7 °C and 49.7 °C. For the same protein, the “heat capacity change of unfolding” value (CD) was 2.01 kcal/mol/K and 1.6 kcal/mol/K and 1.7 kcal/mol/K, the “unfolding enthalpy (van 't Hoff)” value (CD) was 154 kcal/mol and 145 kcal/mol and 135 kcal/mol and the “heat capacity change of unfolding” value (DSC, CaCl2 1 mM) was 2.2 kcal/mol/K and 1.79 kcal/mol/K and 2.44 kcal/mol/K. For the same protein, the “unfolding enthalpy (calorimetric)” value (DSC, CaCl2 1 mM) was 78.2 kcal/mol and 156 kcal/mol and 87 kcal/mol, the Tm (DSC) was 51.2 °C and 49.3 °C and 46.6 °C and the “heat capacity change of unfolding” value (DSC) was 2.01 kcal/mol/K and 1.6 kcal/mol/K and 1.7 kcal/mol/K. The “unfolding enthalpy (calorimetric)” value (DSC) was 161 kcal/mol and 146 kcal/mol and 143 kcal/mol.
